How the values were obtained:
[1] = target: bovine brain αβ-tubulin (taxol-stabilised microtubules, dolastatin-induced rings or DARPin-capped free dimer for biochemical assays) (bovine) (UniProt Q6B856)
[2] = target: bovine brain αβ-tubulin (taxol-stabilised microtubules, dolastatin-induced rings or DARPin-capped free dimer for biochemical assays) (bovine) (UniProt Q6B856); test: co-sedimentation; 1 μM kinesin with 0-10 μM taxol-stabilised microtubules, BRB80 + 100 mM KCl, 2 mM AMP-PNP, 20 μM taxol, 20 min at 25 °C; pellet and supernatant by SDS-PAGE; Kd from a quadratic fit

For “HsKHC-MDN_(L2-CaKip3) (HsKHC-MDN with loop-2 IASK, I41-K44, replaced by CaKip3 loop-2 F116-H144) (from UniProt P33176;A0A1D8PKA4) (domain or fragment)”, the microtubule-gliding speed of HsKHC-MDN (L2-CaKip3) relative to HsKHC-MDN (taxol-stabilised microtubules) [1] was 2 fold, the microtubule-stimulated ATP turnover at steady state, relative to HsKHC-MDN [1] was 2 fold and the fold greater affinity than HsKHC-MDN [2] was 7 fold.
